{
  "source": "paper PMC3186816",
  "about": "(Molecular & Cellular Proteomics : MCP, 2011)",
  "key": {"[1]": {"target": "phage TP901-1 ORF46 (Dit) (Lactococcus phage TP901-1)", "assay": "native MS"}, "[2]": {"target": "phage TP901-1 ORF46 (Dit) (Lactococcus phage TP901-1)", "assay": "denaturing ESI-MS"}, "[3]": {"target": "phage TP901-1 ORF46 (Dit) (Lactococcus phage TP901-1)", "assay": "native MS", "remark": "listed apart in the source"}, "[4]": {"target": "phage TP901-1 ORF46 (Dit) (Lactococcus phage TP901-1)", "assay": "SEC-MALS"}, "[5]": {"target": "phage p2 ORF16 (Lactococcus phage p2)", "assay": "native MS"}, "[6]": {"target": "phage p2 ORF16 (Lactococcus phage p2)", "assay": "native MS", "remark": "listed apart in the source"}, "[7]": {"target": "phage TP901-1 ORF49 (BppL), as in the Tripod sample (Lactococcus phage TP901-1)", "assay": "native MS"}, "[8]": {"target": "phage p2 ORF15 (as in the sample SBP1) (Lactococcus phage p2) (UniProt D3WAD3)", "assay": "native MS"}, "[9]": {"target": "phage TP901-1 ORF49 (BppL, the RBP), as in the sample TP1 (Lactococcus phage TP901-1)", "assay": "native MS"}, "[10]": {"target": "phage TP901-1 ORF48 (BppU), as in the Tripod sample (Lactococcus phage TP901-1)", "assay": "native MS"}, "[11]": {"target": "phage TP901-1 ORF48 (BppU), as in the samples TP1 and Dit-BppU (Lactococcus phage TP901-1)", "assay": "native MS"}, "[12]": {"target": "phage TP901-1 ORF48 (BppU), as in the samples TP1 and Dit-BppU (Lactococcus phage TP901-1)", "assay": "native MS", "remark": "listed apart in the source"}, "[13]": {"target": "Tal-N (TP901-1 ORF47 N-terminal region, residues 1-386) (Lactococcus phage TP901-1)", "assay": "native MS"}, "[14]": {"target": "Tal-N (TP901-1 ORF47 N-terminal region, residues 1-386) (Lactococcus phage TP901-1)", "assay": "denaturing ESI-MS"}, "[15]": {"target": "phage p2 baseplate subcomplex SBP1 [6xORF15 + 3xORF16] (Lactococcus phage p2) (UniProt D3WAD3)", "assay": "native MS"}, "native MS [16]": {"target": "the molecule itself", "assay": "native MS"}, "native MS [17]": {"target": "the molecule itself", "assay": "native MS", "remark": "listed apart in the source"}, "denaturing ESI-MS": {"target": "the molecule itself", "assay": "denaturing ESI-MS"}, "native MS [18]": {"target": "the molecule itself", "assay": "native MS", "remark": "listed apart in the source"}, "[19]": {"target": "T1, phage p2 baseplate [6xORF15 + 3xORF16 + 18xORF18] (Lactococcus phage p2)", "T1 chain 1": "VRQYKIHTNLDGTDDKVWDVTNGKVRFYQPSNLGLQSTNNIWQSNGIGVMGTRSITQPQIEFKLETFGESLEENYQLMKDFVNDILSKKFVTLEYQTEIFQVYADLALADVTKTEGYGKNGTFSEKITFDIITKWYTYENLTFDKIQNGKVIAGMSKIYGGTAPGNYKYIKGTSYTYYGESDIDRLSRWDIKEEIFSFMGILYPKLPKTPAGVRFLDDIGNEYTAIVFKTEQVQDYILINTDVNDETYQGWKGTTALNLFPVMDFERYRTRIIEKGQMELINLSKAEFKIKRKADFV", "T1 chain 2": "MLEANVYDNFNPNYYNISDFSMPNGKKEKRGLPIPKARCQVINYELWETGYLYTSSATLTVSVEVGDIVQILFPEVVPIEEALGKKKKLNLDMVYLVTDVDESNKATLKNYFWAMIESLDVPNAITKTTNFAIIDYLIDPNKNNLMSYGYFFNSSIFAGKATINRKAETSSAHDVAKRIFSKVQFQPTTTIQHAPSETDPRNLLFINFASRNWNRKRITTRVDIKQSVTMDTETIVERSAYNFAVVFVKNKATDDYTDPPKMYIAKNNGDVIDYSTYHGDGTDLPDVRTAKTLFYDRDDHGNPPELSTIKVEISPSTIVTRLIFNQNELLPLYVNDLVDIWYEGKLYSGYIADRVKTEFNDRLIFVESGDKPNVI", "T1 chain 3": "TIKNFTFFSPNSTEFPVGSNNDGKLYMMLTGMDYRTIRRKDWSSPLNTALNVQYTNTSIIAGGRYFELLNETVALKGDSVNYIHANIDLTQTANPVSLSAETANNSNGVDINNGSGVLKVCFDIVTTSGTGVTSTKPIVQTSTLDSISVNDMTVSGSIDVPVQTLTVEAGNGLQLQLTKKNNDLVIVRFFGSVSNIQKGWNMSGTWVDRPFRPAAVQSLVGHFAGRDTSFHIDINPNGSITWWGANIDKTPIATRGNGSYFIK", "assay": "native MS"}},
  "note": "Values joined by “and” are separate entries in the source; they are usually repeats but may differ in a detail not shown here. Identical values can stand only once. Like-named read-outs stand apart in the source and are kept apart here.",
  "data": [
    {"molecule": "phage TP901-1 ORF46 (Dit) (natural protein)", "values": [
      {"measurement": "stoichiometry N", "setting": "[1]", "result": 6},
      {"measurement": "stoichiometry N", "setting": "[2]", "result": "2 and 3 and 6"},
      {"measurement": "stoichiometry N", "setting": "[3]", "result": "6 and 12"},
      {"measurement": "stoichiometry N", "setting": "[4]", "result": 12}
    ]},
    {"molecule": "phage p2 ORF16 (natural protein)", "values": [
      {"measurement": "stoichiometry N", "setting": "[5]", "result": "2 and 3"},
      {"measurement": "stoichiometry N", "setting": "[6]", "result": 3}
    ]},
    {"molecule": "phage TP901-1 ORF49 (BppL), as in the Tripod sample (natural protein)", "values": [
      {"measurement": "stoichiometry N", "setting": "[7]", "result": 3}
    ]},
    {"molecule": "phage p2 ORF15 (as in the sample SBP1) (from UniProt D3WAD3 2-298) (natural protein)", "values": [
      {"measurement": "stoichiometry N", "setting": "[8]", "result": 6}
    ]},
    {"molecule": "phage TP901-1 ORF49 (BppL, the RBP), as in the sample TP1 (natural protein)", "values": [
      {"measurement": "stoichiometry N", "setting": "[9]", "result": "3 and 6"}
    ]},
    {"molecule": "phage TP901-1 ORF48 (BppU), as in the Tripod sample (natural protein)", "values": [
      {"measurement": "stoichiometry N", "setting": "[10]", "result": 3}
    ]},
    {"molecule": "phage TP901-1 ORF48 (BppU), as in the samples TP1 and Dit-BppU (natural protein)", "values": [
      {"measurement": "stoichiometry N", "setting": "[11]", "result": 3},
      {"measurement": "stoichiometry N", "setting": "[12]", "result": 3}
    ]},
    {"molecule": "Tal-N (TP901-1 ORF47 N-terminal region, residues 1-386) (domain or fragment)", "values": [
      {"measurement": "stoichiometry N", "setting": "[13]", "result": "2 and 3"},
      {"measurement": "stoichiometry N", "setting": "[14]", "result": "2 and 3"}
    ]},
    {"molecule": "phage p2 baseplate subcomplex SBP1 [6xORF15 + 3xORF16] (from UniProt D3WAD3 2-298)", "values": [
      {"measurement": "stoichiometry N", "setting": "[15]", "result": 2}
    ]},
    {"molecule": "phage p2 ORF15 (as in the samples BP1, BP2 and SBP2) (natural protein, Lactococcus phage p2) VRQYKIHTNLDGTDDKVWDVTNGKVRFYQPSNLGLQSTNNIWQSNGIGVMGTRSITQPQIEFKLETFGESLEENYQLMKDFVNDILSKKFVTLEYQTEIFQVYADLALADVTKTEGYGKNGTFSEKITFDIITKWYTYENLTFDKIQNGKVIAGMSKIYGGTAPGNYKYIKGTSYTYYGESDIDRLSRWDIKEEIFSFMGILYPKLPKTPAGVRFLDDIGNEYTAIVFKTEQVQDYILINTDVNDETYQGWKGTTALNLFPVMDFERYRTRIIEKGQMELINLSKAEFKIKRKADFV", "values": [
      {"measurement": "stoichiometry N", "setting": "native MS [16]", "result": 6}
    ]},
    {"molecule": "phage p2 ORF18 (receptor-binding protein) (natural protein, Lactococcus phage p2) TIKNFTFFSPNSTEFPVGSNNDGKLYMMLTGMDYRTIRRKDWSSPLNTALNVQYTNTSIIAGGRYFELLNETVALKGDSVNYIHANIDLTQTANPVSLSAETANNSNGVDINNGSGVLKVCFDIVTTSGTGVTSTKPIVQTSTLDSISVNDMTVSGSIDVPVQTLTVEAGNGLQLQLTKKNNDLVIVRFFGSVSNIQKGWNMSGTWVDRPFRPAAVQSLVGHFAGRDTSFHIDINPNGSITWWGANIDKTPIATRGNGSYFIK", "values": [
      {"measurement": "stoichiometry N", "setting": "native MS [17]", "result": 3},
      {"measurement": "stoichiometry N", "setting": "denaturing ESI-MS", "result": 2},
      {"measurement": "stoichiometry N", "setting": "native MS [18]", "result": 3}
    ]},
    {"molecule": "VHH5 neutralizing llama antibody fragment (VHH) VHH: QVQLQESGGGLVQAGGSLRLSCTASRRTGSNWCMGWFRQLAGKEPELVVALNFDYDMTYYADSVKGRFTVSRDSGKNTVYLQMNSLKPEDTAIYYCAARSGGFSSNRELYDGWGQGTQVTVSS", "values": [
      {"measurement": "stoichiometry N", "setting": "[19]", "result": 18}
    ]}
  ]
}
